B1: TPR t1 (parent)
chain: GACCAAUCUGCCCUCAGAGCUCGAGAACAUCUUCGGAUGCAGAGGAGGCAGGCUUCGGUGGCGCGAUAGCGCCAACGUCCUCAACCUCCAAUGCAUCCCACCACAUGAUGAUGCCUGAAGAGCCUUGGUUUUUUG

Variants of: B1
Experiment: polymerase ribozyme fitness, log enrichment relative to wild type (log ratio); higher = more active; in vitro selection for triplet polymerase activity
How it was run: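 Each subunit of a heterodimeric triplet polymerase ribozyme was represented by a PCR-built, transcribed mutant library that underwent triplicate single-round in vitro selection with frozen incubation at −7 °C. Extended constructs were recovered by gel excision, streptavidin-bead capture and RT-PCR, and Illumina sequencing of input and output libraries kept genotypes with ≥10 input reads and ≥1 read per output. Fitness is the logarithm of genotype enrichment relative to wild-type enrichment, from inverse-variance-weighted replicate averages, with a logarithm base of 2.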

Row | Variant | polymerase ribozyme fitness (log ratio)
1 | A95U C114G | -2.97
2 | C89G C115A G120C | -1.16
3 | C88U G107A | -6.88
4 | G93A U116A U130G | -4.69
5 | C94A U132A | -0.269
6 | U92C G113A | -1.23
7 | U92A C94U | -3.3
8 | C94G C115A A121C | 0.289
9 | U96A G117U | -3.63
10 | A91C U96G | -1.78
11 | U92A C114A | -3.48
12 | G93A U112C | 0.676
13 | C89G C97A A100U C114A | -7.31
14 | C94A A121C G122U U129A | -2.35
15 | G93C C94A | -1.68
16 | G93C U132C | -1.62
17 | C89A C102G | -6.86
18 | U96C C114G | -2.45
19 | U96C C114U | -2.44
20 | C89U U112A | -0.432
21 | U92G G117C U129C U133C | -4.13
22 | C89A A95C | -3.6
23 | A90U C101A | -3.3
24 | G93U U106A | -1.03

Row | Variant | polymerase ribozyme fitness (log ratio)
25 | U92G C94U | -4.52
26 | G93C G127C | -1.82
27 | U92A A121U U125G | -1.83
28 | C94A A118U | -0.204
29 | A91G C94U U109A U112A | -6.42
30 | A90G C102A G117A | -5.32
31 | A95G A119G | 1.26
32 | A95U U109G G120C | -5.29
33 | A95G A111G | 0.572
34 | U92C G128C U130A | -3.52
35 | U92C U116C | -2.42
36 | C89G G113A G127U | -4.45
37 | C89U A119U | -2.2
38 | U96C U112A A121U | 1.86
39 | U96A U130C | -0.978
40 | G93U C97U | -0.996
41 | C94A A100G C114U C124G | -5.66
42 | G93C C104U A108G | -2.77
43 | A90G U116A | -1.88
44 | A91C U96A A103U | -7.59
45 | C94A A105C C114A A118U | -1.05
46 | G93A G120A | 0.446
47 | G93A G120U | -0.0719
48 | A95G G117A U133A | -1.23

Row | Variant | polymerase ribozyme fitness (log ratio)
49 | A95G C124U U130G | 0.565
50 | A95U A111U G120U | -5.49
51 | U96G C123G | 1.1
52 | G93A G128U | -1.66
53 | A91U U116G G120C G128U | -4.65
54 | A95U G113A G122A | -3.26
55 | A91U G93C G113C G135U | -3.6
56 | G93A G135U | -2.04
57 | G93U C114A | -3.05
58 | G93U G110A G120U | -4.68
59 | C89G C102A C114A | -5.12
60 | G93C A95C | -0.938
61 | U92A C98U | -4.66
62 | A95C C123G | -0.428
63 | C88U U106A U130A | -0.0999
64 | G93U A108G G120U | -3.31
65 | G93C G128C | -2.25
66 | C89U C104U | 0.00386
67 | A90C C114A C124A U125C | 0.0876
68 | U96A G117A G120A U130C | -3.72
69 | G93U C98U | -2.33
70 | U92C A121C | 1.53
71 | A90G A103U A119G | -3.56
72 | A91C G113U | -3.8

Row | Variant | polymerase ribozyme fitness (log ratio)
73 | A91U G110C A121U | -5.81
74 | U96A G120U | -0.867
75 | A90U C104A G113C | -3.66
76 | C89U A121U | 2.14
77 | U96G U130G | -1.28
78 | C94A U112G | -1.48
79 | A90U A118U | -0.274
80 | C94A G117U U125A | -5.92
81 | A91U G113U | -3.5
82 | G93A C124A | 0.841
83 | U92C G120U G127A | -0.833
84 | G93C A100C U130A | -2.66
85 | G93A G122A | -1.4
86 | C94U C102G | -6.09
87 | U96A U129C | -1.7
88 | A90U C98G C114G G117C C123U U126C | -5.73
89 | U92G U106A | -1.97
90 | A90C C101G | -3.07
91 | A95C C123G U132A | -0.459
92 | C89G C123U | -0.521
93 | A95U U116G | -2
94 | A90C | -1.08
95 | A90U | -1.2
96 | A90G | 0.347

Row | Variant | polymerase ribozyme fitness (log ratio)
97 | C94U G117C | -3.83
98 | G93A U129A | -1.36
99 | C94A U129G | -1.07
100 | C97A C123U | -2.71
101 | C94A C101G C123G | -1.92
102 | C94G U106A G135U | -1.54
103 | A90G C97U A105C U130A | -3.67
104 | G93C G113C | -3.08
105 | U96C C123A | 1.12
106 | G93U G120U | -1.4
107 | A90U C97U U125A G127C U130G | -3.85
108 | A95C G110U | -2.32
109 | U92G A118C | -4
110 | C89U U96A | -1.3
111 | C89U U96C | -0.473
112 | A91C G127A | -2.15
113 | G93A G113U | -3.19
114 | A90G C99U U106C | -2.51
115 | A90C U109A A118U | -5.95
116 | G93C G135A | -1.71
117 | U92C U112C | 0.33
118 | A95G U126C | -0.892
119 | A95C C102A U133A G135C | -2.89
120 | A91C C104U C123U | 0.398

Row | Variant | polymerase ribozyme fitness (log ratio)
121 | A95U U132A | -1.52
122 | A90C A95G | -0.983
123 | A95C U125A U126G | -1.74
124 | C89U C101U | -1.33
125 | C89G C98U | -1.55
126 | C89U A90C | -0.815
127 | C89G C101A | -2.55
128 | G93U U130A U131C | -1.29
129 | A91G G113A | -1.95
130 | C94A C104A C123U | -1.42
131 | C89U A90G U112A C123G | 1.96
132 | A90C U125A | -1.2
133 | A90G C94U C97A C124A | -0.528
134 | A95G C101A A111C | -1.91
135 | C89U U133A | -0.271
136 | U92C C115U | -2.72
137 | A90C C98U | -2.83
138 | C89A C101A | -2.25
139 | C89G U126G | -3.19
140 | U92C U112G G113U U130C | -5.75
141 | U96G A111G U125G | -1.74
142 | C89U G113C G120C | -3.26
143 | C89A G110U U132C | -4.16
144 | C89G C104U | -0.672

Row | Variant | polymerase ribozyme fitness (log ratio)
145 | A95C A119U | -1.28
146 | G93C C101U C104A | -1.95
147 | A90G C102A C124A | 0.51
148 | C89U A95U C115U | -2.59
149 | C89U G127C | -1.79
150 | G93A A105C | -3.13
151 | U96G A111U | -4.9
152 | C88U C114G | -3.05
153 | C88U C114U | -1.17
154 | G93A C114A A119U G122C | -3.4
155 | U96A C123A | -1.45
156 | U92A C102G G113C | -6.86
157 | U92A U106A C114A C123A | -5.83
158 | U92A G113A U125C | -3.27
159 | A95C U131A | -0.642
160 | U96A C97A | -2.95
161 | C88U C102U | -1.5
162 | G93A C115U | -1.29
163 | C89A G122A U125G | -4.57
164 | G93C C123A | -1.09
165 | A90G C97U | 0.255
166 | C94G C124G | 1.09
167 | U96C A105U | -3.06

Reference: the RNAGym collection of RNA variant scans (doi:10.1073/pnas.2313332121)
